Assay in all cases: EMSA
Series [1] deals with T1, LuxR (Vibrio harveyi, UniProt P21308 1-205).
T1 sequence: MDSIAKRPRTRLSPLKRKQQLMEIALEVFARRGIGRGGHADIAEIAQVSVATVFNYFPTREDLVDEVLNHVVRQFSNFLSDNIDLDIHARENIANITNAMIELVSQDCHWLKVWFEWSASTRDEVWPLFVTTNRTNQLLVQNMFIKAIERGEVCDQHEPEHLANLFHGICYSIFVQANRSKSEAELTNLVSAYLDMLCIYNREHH

For series [2], the target named is T2, LuxR T52M/I24V (Vibrio harveyi, UniProt P21308 1-205, T52M;I24V).
T2 sequence: T1 sequence with I24V, T52M

The target in series [3] is T1, LuxR. This is another data set of the same source.
The target in series [4] is T3, LuxR N55I (Vibrio harveyi, UniProt P21308 1-205, N55I).
T3 sequence: T1 sequence with N55I

The next series concerns the target T4, LuxR L139P (Vibrio harveyi, UniProt P21308 1-205, L139P).
T4 sequence: T1 sequence with L139P

The target of series [5] is T1, LuxR. The source holds these as a separate data set.
The target in series [6] is T1, LuxR. This is another data set of the same source.
Series [7] addresses T3, LuxR N55I. This is another data set of the same source.
Series [8] deals with T1, LuxR. This is another data set of the same source.
The target in series [9] is T2, LuxR T52M/I24V. This is another data set of the same source.

Substitutions are numbered along the chain they refer to. Read-outs that look alike come from different tables or passages of the source.

The Kd is the free concentration of one partner at which half of the binding sites on the other are occupied at equilibrium, for simple one-to-one binding.

B1: aphA promoter BS* randomized 31mer (dsDNA)
DNA 1: TTTACGTTACTTGTTGGTAAATTTTATATAT
DNA 2: ATATATAAAATTTACCAACAAGTAACGTAAA
As to B1, the binding result with LuxR [1] was “no binding”.

B2: PluxC site 1 (dsDNA)
DNA 1: TTACTTATTTATAGTGTTACAAATAACATTA
DNA 2: TAATGTTATTTGTAACACTATAAATAAGTAA
With B2, the binding result with LuxR T52M/I24V [2] was “no binding”; in the series with LuxR [3], “binds”; in the series with LuxR N55I [4] it was “binds”; with LuxR L139P it was “binds”.

B3: P05222 28 bp (dsDNA)
DNA 1: CTAGTACTGACAAAAAAGTTAATATTTT
DNA 2: AAAATATTAACTTTTTTGTCAGTACTAG
Take B3: the binding result in the series with LuxR [5] was “binds”.

B4: PluxC site 2 (dsDNA)
DNA 1: ACTAATTATAAATAAATCAAACTATAATTAGA
DNA 2: TCTAATTATAGTTTGATTTATTTATAATTAGT
With B4, the Kd with LuxR [6] is 103 nM. Further, the figures for the binding result with LuxR N55I [7] and with LuxR L139P were “no binding” and “binds”, respectively.

B5: P05222 site G to T + T to C (dsDNA)
DNA 1: GTGCAACAAAATATTGACTTTTTTGTCAGTAAGGATCCGGTGATTG
DNA 2: CAATCACCGGATCCTTACTGACAAAAAAGTCAATATTTTGTTGCAC
As to B5, the binding result with LuxR [8] and with LuxR T52M/I24V [9] was “binds” each time.

B6: PluxC site 3 (dsDNA)
DNA 1: TTATTTAAATGATATAAATATAAATAACATCA
DNA 2: TGATGTTATTTATATTTATATCATTTAAATAA
With B6, in the series with LuxR [6], the Kd is 0.6 nM.

B7: P05222 site 31mer (dsDNA)
DNA 1: CTAGTACTGACAAAAAAGTTAATATTTTGTT
DNA 2: AACAAAATATTAACTTTTTTGTCAGTACTAG
As to B7, the figures for the dissociation constant (Kd) with LuxR [6] and in the series with LuxR T52M/I24V [2] were 0.7 nM and 56.6 nM, respectively.

Values taken from article PMC3705450.
